Test results taken from patent publication US20230151434A1, “REAWAKENING OF DORMANT TUMOR CELLS BY MODIFIED LIPIDS DERIVED FROM STRESS ACTIVATED NEUTROPHILS” (The Wistar Institute of Anatomy and Biology, priority 2020, published 2023).

B1: S100A8/A9: recombinant S100A8/A9, heterocomplex of two S100 calcium binding proteins (calprotectin) (protein, UniProt P27005 2-89; P31725 2-113, looked up)
Protein S100-A8: PSELEKALSNLIDVYHNYSNIQGNHHALYKNDFKKMVTTECPQFVQNINIENLFRELDINSDNAINFEEFLAMVIKVGVASHKDSHKE
Protein S100-A9: ANKAPSQMERSITTIIDTFHQYSRKEGHPDTLSKKEFRQMVEAQLATFMKKEKRNEALINDIMEDLDTNQDNQLSFEECMMLMAKLIFACHEKLHENNPRGHGHSHGKGCGK

Columns and labels:
[1] = system: A549^cisA and OVCAR3^cisA cells; experiment: In vitro co-culture of chemotherapy-arrested human tumor cells with human PMN; assay type: cell-based; settings: PMN and NE plus ICI-118,551
Method: The KPr cell line (16) was maintained in RPMI 1640 medium (Corning) and 10% FBS (Gibco). Treatment of KPr cells with 250 nM 4-hydroxytamoxifen (4-OHT, Sigma-Aldrich) induced p53 expression. p53-induced cells (KPr^p53) were stained with CellTrace dye for 20 min at 37° C. according to the manufacturer's instructions (Life Technologies) and seeded at 8500 cells/cm^2 in culture in a T175 tissue culture-treated flask (Gibco). After 7 days, cells were detached and sorted based on the CellTrace dye intensity as proliferating (KPr^p53P, with lower CellTrace) and arrested cells (KPr^p53A, with higher-intensity CellTrace; see FIG. 1A for representative image). LL2 cells were seeded at 1000 cells/cm2 and treated for 3 days with 2.5 μM cisplatin (Selleckchem). After that, cells were stained with CellTrace and sorted as described above. OVCAR3 cell senescence was induced by treating 5×10^4 cells/cm2 with 0.5 μM cisplatin for 72 hours. After that time, cells were stained with CellTrace and sorted. A549 senescence was induced by 72-hour treatment with 4 μM cisplatin and cells were sorted after staining with CellTrace. Time points for sorting were chosen as the best to observe separation between arrested and proliferating cells. Cells were sorted on Astrios (Beckman Coulter) or Melody (Becton Dickinson) fluorescence-activated cell sorters.
Arrested tumor cells were plated at 100 cells/cm^2 in a 48-well tissue culture-treated plate (Costar) for coculture experiments. After 24 hours, PMN-MDSC or PMN were added at indicated ratios. Cocultures were maintained for 48 hours in RPMI 1640+10% FBS in the presence of mouse recombinant GM-CSF (10 ng/ml; Rocky Hill) to ensure neutrophil viability. All control conditions were in the presence of media with GM-CSF. All indicated supplements (NE, S100A8/A9, BGJ398, ICI 118-551, IL-2, MPO inhibitor, LPS, lipids, PMA, and thapsigargin 1 μM) were added to culture at the same time as PMN and maintained for 48 hours. After that, media were removed and replaced by fresh media without GM-CSF. After 1 week, GFP^+ cells in wells were counted via an inverted microscope. When lipid extracts were used, lipids were added to dormant cells in culture at 1 to 0.05 or 0.01 nmol as indicated in each experiment.

PMN [2] = experiment: ROS production in PMN (DCFDA, flow cytometry); assay type: cell-based, mouse
Description: FIG. 14A-FIG. 14B show the effect of S100A9 on PMN activity. (FIG. 14A) DCFDA measured by flow cytometry in PMN treated with S100A8/A9 or NE. Each dot represents an individual mouse. Mean±SEM are shown. (FIG. 14B) qRT-PCR of Ptges, Ptgs2, and Arg1 expression in mouse PMN treated with S100A8/A9 or NE. Each dot represents an individual mouse. Mean±SEM are shown.

PMN [3] = experiment: LC-ESI-MS analysis of lipids in PMN; assay type: cell-based, mouse
Method: Lipids were extracted by the Folch procedure with slight modifications, under nitrogen atmosphere, at all steps. Briefly, methanol (1 ml) was added to the cell suspension and mixed. After that, chloroform (2 ml) was added, and the mixture was vortexed every 15 min for 1 hour at 0° C. Next, 0.1 M NaCl (0.5 ml) was added to the samples and vortexed, and the chloroform layer was separated by centrifugation (1500 g, 5 min). The lower (organic) layer was collected. The aqueous layer was re-extracted with 1 ml of chloroform/methanol (2:1, v/v). The chloroform (lower) layers were combined, evaporated under a stream of nitrogen, and used for lipidomics analysis. MS analysis of phospholipids was performed on a Fusion Lumos trihybrid-quadrupoleorbitrap-ion trap mass spectrometer (Thermo Fisher Scientific). Phospholipids were separated on a normal phase column [Luna 3 μm Silica (2) 100 A, 150×1.0 mm (Phenomenex)] at a flow rate of 0.065 ml/min on a Thermo Ultimate 3000 HPLC system. The column was maintained at 35° C. The analysis was performed using gradient solvents (A and B) containing 10 mM ammonium formate. Solvent A contained propanol/hexane/water (285:215:5, v/v/v) and solvent B contained propanol/hexane/water (285:215:40, v/v/v). All solvents were LC/MS grade. The column was eluted for 0 to 3 min with a linear gradient from 10 to 37% B and then held for 3 to 15 min at 37% B. The column was eluted for 15 to 23 min with a linear gradient of 37 to 100% B, and then held for 23 to 75 min at 100% B. The column was eluted again for 75 to 76 min with a linear gradient from 100 to 10% B followed by equilibration from 76 to 90 min at 10% B. Analysis was performed in negative ion mode at a resolution of 120,000 for the full MS scan in a data-dependent mode. The scan range for MS analysis was 400 to 1800 m/z (mass/charge ratio) with a maximum injection time of 100 ms using 1 microscan. An isolation window of 1.2 Da was set for the MS and MS2 scans. Capillary spray voltage was set at 3.5 kV, and capillary temperature was 320° C.

MPO = MPO activity in neutrophils; assay type: cell-based, mouse; settings: S100A8/A9 5 μg/ml or LPS 2 μg/ml
Method: Neutrophils were isolated from tumor-free mice as described above, and MPO activity was measured with an MPO Fluorometric Activity Assay Kit (Sigma-Aldrich) using a VICTOR spectrophotometer (PerkinElmer).

PMN [4] = experiment: qRT-PCR of Ptges, Ptgs2 and Arg1 in PMN; assay type: cell-based, mouse
Method: RNA from tumor cells or PMN was extracted from snap-frozen pellets with Quick-RNA Microprep or Quick-RNA Miniprep (Zymo Research) per the manufacturer's instructions. cDNA was prepared with a High-Capacity cDNA Reverse Transcription Kit with RNase Inhibitor (Thermo Fisher Scientific) per the manufacturer's instructions. qRT-PCR was performed in an ABI QuantStudio 5 Rm 422 machine (Applied Biosystems).

PMN and PMN-MDSC = experiment: NET detection; assay type: cell-based, mouse
Method: PMN were cultured for 8 hours in 24-well flat-bottom plates in RPMI 1640+10% FBS. PMN were then fixed with 4% paraformaldehyde (Electron Microscopy Sciences) followed by staining with SYTOX Green Nucleic Acid Stain (SYTOX) at a final concentration of 250 nM. A Nikon TE300 inverted microscope equipped with a motorized XY stage was used to image NETs by acquiring 25 random locations per well. The z-stacks per location were then combined into an extended depth focused image. The total NET area was calculated by segmenting each image using a defined threshold pixel intensity setting. The spot detection tool in NIS-Elements Advanced Research (Nikon) was used to count the number of cells per field. The sum of the total NET area in the 25 random fields of view was divided by the total number of cells in the 25 fields of view to obtain NET area (in […]) per cell.

Row | Molecule | NE- and PMN-induced reactivation of dormant human tumor cells, effect of β-blocker [1] | ROS production in PMN (PMN [2]) | content of oxidatively truncated PC species in PMN (PMN [3]; PMN incubation) | accumulation of oxidized, oxidatively truncated, and lyso-PE in PMN (PMN [3]; overnight treatment) | content of LPE containing saturated and monoenic acyl chains in PMN (PMN [3]; overnight treatment) | MPO enzymatic activity in PMN (MPO) | expression of Arg1, Ptgs2, or Ptges in PMN (PMN [4]) | NET formation by PMN and PMN-MDSC (PMN and PMN-MDSC)
1 | Cc1ccc(OCC(O)C(C)NC(C)C)c2c1CCC2 (centres unmarked) [ICI-118,551] | this effect was abrogated | – | – | – | – | – | – | –
2 | B1 | – | no effect on ROS production | No significant changes in the content of oxidatively truncated PC species | caused marked accumulation of oxidized, oxidatively truncated, and lyso-PE in PMN | did not change the content of LPE containing saturated and monoenic acyl chains in PMN | activated MPO in PMN | little or no effect on expression of Arg1, Ptgs2, or Ptges | did not cause substantial up-regulation of NETs
